{"source": "patent US10808249B2", "about": "“Methods and compositions for weed control” (Monsanto Technology LLC, priority 2011, dated 2020)", "molecules": {"B1": {"name": "SEQ ID NO: 2137: ssDNA trigger oligonucleotide targeting PDS, one of a mixture applied to Palmer amaranth before norflurazon (nucleic acid, listed as Amaranthus palmeri)", "antisense": "ACCGAUUCCUGCAGGAGAAACAUGGUUCUAAGAUGGCCUUCCUAGACGGAAACCCUCCAGAGAGGCUGUGCAUGCCUAUUGUUAAACACAUCGAGUCACUAGGUGGUGAAGUUAAACUUAACUCUCGUAUACAAAAGAUUCAGUUGGACCAGAGUGGAAGCGUGAAGAGUUUUUUGCUAAAUAACGGGAGG"}}, "tested_on": "Glyphosate-sensitive Palmer amaranth (A. palmeri R-22) plants", "assay": "Palmer amaranth pre-treated with PDS trigger oligonucleotides, then norflurazon", "type": "in vivo, Amaranthus palmeri", "conditions": "mixture of oligonucleotides incl. SEQ ID NO: 2137 at 0.8 nmol, 0.5% Silwet L-77; norflurazon 675 g ai/ha 24 and 48 h later; compared with norflurazon alone", "method": "Glyphosate-sensitive Palmer amaranth (A. palmeri R-22) plants were grown in the greenhouse (30/20 C day/night T; 14 hour photoperiod) in 4 inch square pots containing Sun Gro® Redi-Earth and 3.5 kg/cubic meter Osmocote® 14-14-14 fertilizer. Palmer amaranth plants at 5 to 10 cm in height were pre-treated with a mixture of oligonucleotides one of which was a SEQ ID NO: 2137 at 0.8 nmol comprising at least one oligonucleotide targeting PDS coding or noncoding regions, formulated in 10 millimolar sodium phosphate buffer (pH 6.8) containing 2% ammonium sulfate and 0.5% Silwet L-77. Plants were treated manually by pipetting 10 μL of polynucleotide solution on four fully expanded mature leaves, for a total of 40 microliters of solution per plant. Twenty-four and forty-eight hours later, the plants were treated with norflurazon (Solicam®, Syngenta, Greensboro, N.C.) at 675 g ai/ha, crop oil concentrate (COC) at 1% is added to the herbicide treatments. Four replications of each treatment was conducted. Plant height is determined just before ssDNA treatment and at intervals upto twelve days after herbicide treatments to determine effect of the oligonucleotide and herbicide treatments."}
{"molecule": "B1", "values": [{"measurement": "injury to the plants (FIG. 1)", "result": "more injury to the plants than the norflurazon alone"}]}
